Data from the supplement of paper PMC10567573.

B1: TRIM55 (parent)
chain: YKSFSKEQQTMDNLEKQLICPICL

Variants of: B1
Assay: protein stability index of a GFP-peptide fusion (GPS, HEK-293T) (PSI 1-6); higher = more stable
Conditions: c terminus: a fixed tail appended
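Note: lentivirally expressed fusions sorted by FACS into six bins by GFP to DsRed ratio, PSI derived from sequencing read proportions per bin multiplied by bin number.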

Variant | protein stability index
YKSFSKEQQTMDNLEAQLICPICL | 1.8
YKSFSKEQQTMDNLECQLICPICL | 1.82
YKSFSKEQQTMDNLEWQLICPICL | 1.88
YKSFSKEQQTMDNLEQQLICPICL | 1.83
YKSFSKEQQTMDNLELQLICPICL | 1.68
YKSFSKEQQTMDNLEVQLICPICL | 1.76
YKSFSKEQQTMDNLEPQLICPICL | 2.57
YKSFSKEQQTMDNLESQLICPICL | 1.81
YKSFSKEQQTMDNLEEQLICPICL | 1.68
YKSFSKEQQTMDNLEYQLICPICL | 1.67
YKSFSKEWQTMDNLEKQLICPICL | 1.66
YKSFSKEFQTMDNLEKQLICPICL | 1.54
YKSFSKERQTMDNLEKQLICPICL | 1.72
YKSFSKEEQTMDNLEKQLICPICL | 2.3
YKSFSKECQTMDNLEKQLICPICL | 1.96
YKSFSKENQTMDNLEKQLICPICL | 2.18
YKSFSKEKQTMDNLEKQLICPICL | 1.8
YKSFSKEMQTMDNLEKQLICPICL | 1.96
YKSFSKETQTMDNLEKQLICPICL | 2.17
YKSFSKEQQCMDNLEKQLICPICL | 2.82
YKSFSKEQQLMDNLEKQLICPICL | 2.18
YKSFSKEQQFMDNLEKQLICPICL | 1.29
YKSFSKEQQDMDNLEKQLICPICL | 2.08
YKSFSKEQQWMDNLEKQLICPICL | 1.77

Variant | protein stability index
YKSFSKEQQEMDNLEKQLICPICL | 2.33
YKSFSKEQQMMDNLEKQLICPICL | 1.9
YKSFSKEQQYMDNLEKQLICPICL | 1.92
YKSFSKEQQQMDNLEKQLICPICL | 2.31
YKSFSKEQQKMDNLEKQLICPICL | 2.54
YKSFSKEQQSMDNLEKQLICPICL | 2.46
YKSFSKEQCTMDNLEKQLICPICL | 2.15
YKSFSKEQHTMDNLEKQLICPICL | 1.98
YKSFSKEQITMDNLEKQLICPICL | 1.79
YKSFSKEQYTMDNLEKQLICPICL | 2.7
YKSFSKEQPTMDNLEKQLICPICL | 2.16
YKSFSKEQETMDNLEKQLICPICL | 2.08
YKSFSKEQQTMDALEKQLICPICL | 1.57
YKSFSKEQQTMDLLEKQLICPICL | 2.82
YKSFSKEQQTMDDLEKQLICPICL | 2.77
YKSFSKEQQTMDWLEKQLICPICL | 2.05
YKSFSKEQQTMDMLEKQLICPICL | 1.69
YKSFSKEQQTMDYLEKQLICPICL | 1.83
YKSFSKEQQTMDGLEKQLICPICL | 2.35
YKSYSKEQQTMDNLEKQLICPICL | 2.34
YKSQSKEQQTMDNLEKQLICPICL | 2.37
YKSLSKEQQTMDNLEKQLICPICL | 2.27
YKSWSKEQQTMDNLEKQLICPICL | 1.74
YKSRSKEQQTMDNLEKQLICPICL | 2.66

Variant | protein stability index
YKSTSKEQQTMDNLEKQLICPICL | 2.44
YKSKSKEQQTMDNLEKQLICPICL | 2.63
YKSMSKEQQTMDNLEKQLICPICL | 2
YKSNSKEQQTMDNLEKQLICPICL | 2.45
YKSFSKEQQTMDNLEKQLICPRCL | 3.81
YKSFSKEQQTMDNLEKQLICPKCL | 2.9
YKSFSKEQQTMDNLEKQLICPLCL | 2.18
YKSFSKEQQTMDNLEKQLICPSCL | 2.75
YKSFSKEQQTMDNLEKQLICPECL | 2.93
YKSFSYEQQTMDNLEKQLICPICL | 1.98
YKSFSAEQQTMDNLEKQLICPICL | 2.91
YKSFSMEQQTMDNLEKQLICPICL | 1.57
YKSFSTEQQTMDNLEKQLICPICL | 2.09
YKSFSFEQQTMDNLEKQLICPICL | 1.3
YKSFSCEQQTMDNLEKQLICPICL | 2.41
YKSFSKLQQTMDNLEKQLICPICL | 1.35
YKSFSKPQQTMDNLEKQLICPICL | 2.27
YKSFSKTQQTMDNLEKQLICPICL | 1.96
YKSFSKHQQTMDNLEKQLICPICL | 2.36
YKSFSKVQQTMDNLEKQLICPICL | 1.6
YKSFSKEQQTMDNQEKQLICPICL | 3.27
YKSFSKEQQTMDNCEKQLICPICL | 2.51
YKSFSKEQQTMDNVEKQLICPICL | 2.23
YKSFSKEQQTMDNEEKQLICPICL | 3.2

Variant | protein stability index
YKSFSKEQQTMDNPEKQLICPICL | 2.7
YKSFSKEQQTMDNDEKQLICPICL | 2.53
YKSFSKEQQTMDNHEKQLICPICL | 2.13
YKSFSKEQQTMDNWEKQLICPICL | 2.81
YKSFSKEQQTMDNREKQLICPICL | 2.58
YKSFSKEQQTMDNIEKQLICPICL | 2.06
YKSFSKEQQTMDNSEKQLICPICL | 2.8
YKSFSKEQQTMDNAEKQLICPICL | 3.03
YKSFSKEQQTWDNLEKQLICPICL | 1.55
YKSFSKEQQTKDNLEKQLICPICL | 2.54
YKSFSKEQQTQDNLEKQLICPICL | 2.69
YKSFSKEQQTVDNLEKQLICPICL | 2.68
YKSFSKEQQTLDNLEKQLICPICL | 2.3
YKSFSKEQQTTDNLEKQLICPICL | 2.12
YKSFSKEQQTGDNLEKQLICPICL | 2.22
YKSFSKEQQTYDNLEKQLICPICL | 2.1
YKSFKKEQQTMDNLEKQLICPICL | 2.48
YKSFAKEQQTMDNLEKQLICPICL | 1.89
YKSFYKEQQTMDNLEKQLICPICL | 2.26
YKSFDKEQQTMDNLEKQLICPICL | 2.18
YKSFSKEQQTMDNLKKQLICPICL | 2.09
YKSFSKEQQTMDNLVKQLICPICL | 1.27
YKSFSKEQQTMDNLRKQLICPICL | 2.12
YKSFSKEQQTMDNLGKQLICPICL | 2.41

Variant | protein stability index
YKSFSKEQQTMDNLQKQLICPICL | 2.58
YKSFSKEQQTMDNLNKQLICPICL | 2.33
YKSFSKEQQTMDNLDKQLICPICL | 2.13
YKSFSKEQQTMDNLEKQLICPICI | 2.7
YKSFSKEQQTMDNLEKQLICPICQ | 2.22
YKSFSKEQQTMDNLEKQLICPICT | 1.98
YKSFSKEQQTMDNLEKQLICPICN | 2.46
YHSFSKEQQTMDNLEKQLICPICL | 1.29
YISFSKEQQTMDNLEKQLICPICL | 1.56
YASFSKEQQTMDNLEKQLICPICL | 2.02
YGSFSKEQQTMDNLEKQLICPICL | 2.92
YNSFSKEQQTMDNLEKQLICPICL | 2.12
YPSFSKEQQTMDNLEKQLICPICL | 2.5
YLSFSKEQQTMDNLEKQLICPICL | 2.52
YDSFSKEQQTMDNLEKQLICPICL | 2.36
YESFSKEQQTMDNLEKQLICPICL | 1.73
YVSFSKEQQTMDNLEKQLICPICL | 2.05
YWSFSKEQQTMDNLEKQLICPICL | 1.96
YMSFSKEQQTMDNLEKQLICPICL | 2.1
YYSFSKEQQTMDNLEKQLICPICL | 1.95
YKSFSKEQQTMDNLEKQLGCPICL | 2.8
YKSFSKEQQTMDNLEKQLTCPICL | 2.76
YKSFSKEQQTMDNLEKQLFCPICL | 2.09
YKSFSKEQQTMDNLEKQLNCPICL | 2.71

Variant | protein stability index
YKSFSKEQQTMDNLEKQLLCPICL | 1.96
YKSFSKEQQTMDNLEKQLACPICL | 1.99
YKSFSKEQQTMDNLEKQLECPICL | 3.01
YKSFSKEQQTMDNLEKQLKCPICL | 2.55
YKSFSKEQQTMDNLEKQLHCPICL | 2.25
YKSFSKEQQTMDNLEKQLVCPICL | 2.06
YKSFSKEQQTMDNLEKQLYCPICL | 2.02
YKSFSKEQQTMDNLEKWLICPICL | 2.31
YKSFSKEQQTMDNLEKCLICPICL | 2.12
YKSFSKEQQTMDNLEKVLICPICL | 2.01
YKSFSKEQQTMDNLEKKLICPICL | 2.32
YKSFSKEQQTMDNLEKELICPICL | 2.32
YKSFSKEQQTMDNLEKSLICPICL | 1.72
YKSFSKEQQTMDNLEKLLICPICL | 2
YKSFSKEQQTMGNLEKQLICPICL | 2.56
YKSFSKEQQTMLNLEKQLICPICL | 2.14
YKSFSKEQQTMNNLEKQLICPICL | 2.37
YKSFSKEQQTMHNLEKQLICPICL | 1.93
YKSFSKEQQTMANLEKQLICPICL | 2.04
YKSFSKEQQTMKNLEKQLICPICL | 2.98
YKSFSKEQQTMSNLEKQLICPICL | 1.93
YKSFSKEQQTMTNLEKQLICPICL | 2.42
YKSFSKEQQTMINLEKQLICPICL | 1.93
YKSFSKEQQTMFNLEKQLICPICL | 2.68

Variant | protein stability index
YKSFSKEQQTMDNLEKQLICKICL | 2.07
YKSFSKEQQTMDNLEKQLICDICL | 1.07
YKSFSKEQQTMDNLEKQLICFICL | 1.74
YKSFSKEQQTMDNLEKQLICGICL | 2.21
YKSFSKEQQTMDNLEKQLICRICL | 1.35
YKSFSKEQQTMDNLEKQLICLICL | 1.67
YKSFSKEQQTMDNLEKQLICYICL | 3.21
LKSFSKEQQTMDNLEKQLICPICL | 2.94
PKSFSKEQQTMDNLEKQLICPICL | 2.7
KKSFSKEQQTMDNLEKQLICPICL | 2.68
TKSFSKEQQTMDNLEKQLICPICL | 2.62
QKSFSKEQQTMDNLEKQLICPICL | 2.15
IKSFSKEQQTMDNLEKQLICPICL | 1.99
VKSFSKEQQTMDNLEKQLICPICL | 1.97
WKSFSKEQQTMDNLEKQLICPICL | 2.17
NKSFSKEQQTMDNLEKQLICPICL | 2.48
YKSFSKEQQTMDNLEKQLIPPICL | 2.86
YKSFSKEQQTMDNLEKQLIEPICL | 3.21
YKSFSKEQQTMDNLEKQLINPICL | 2.42
YKSFSKEQQTMDNLEKQLISPICL | 2.4
YKTFSKEQQTMDNLEKQLICPICL | 2.69
YKYFSKEQQTMDNLEKQLICPICL | 1.44
YKLFSKEQQTMDNLEKQLICPICL | 1.69
YKQFSKEQQTMDNLEKQLICPICL | 2.2

Variant | protein stability index
YKNFSKEQQTMDNLEKQLICPICL | 2.32
YKGFSKEQQTMDNLEKQLICPICL | 1.69
YKVFSKEQQTMDNLEKQLICPICL | 2.07
YKEFSKEQQTMDNLEKQLICPICL | 2.25
YKSFSKEQQTMDNLEKQLICPIAL | 2.29
YKSFSKEQQTMDNLEKQLICPIDL | 3.64
YKSFSKEQQTMDNLEKQLICPIML | 1.66
YKSFSKEQQTMDNLEKQLICPISL | 2.6
YKSFSKEQQTMDNLEKQLICPIPL | 1.86
YKSFSKEQQTMDNLEKQLICPINL | 3.15
YKSFSKEQQTMDNLEKQLICPIGL | 2.67
YKSFSKEQQTMDNLEKQLICPIKL | 3.13
YKSFSKEQQTMDNLEKQLICPIRL | 2.37
YKSFSKEQQTMDNLEKQVICPICL | 3.42
YKSFSKEQQTMDNLEKQDICPICL | 2.98
YKSFSKEQQTMDNLEKQIICPICL | 2.31
YKSFSKEQQTMDNLEKQCICPICL | 3.72
YKSFSKEQQTMDNLEKQNICPICL | 2.96
YKSFSKEQQTMDNLEKQSICPICL | 2.49
YKSFSKEQQTMDNLEKQQICPICL | 2.08
